Numbering of substitutions follows the chain as printed.
T1: murine HER2 (murine, UniProt P70424 23-1256)
T1 chain: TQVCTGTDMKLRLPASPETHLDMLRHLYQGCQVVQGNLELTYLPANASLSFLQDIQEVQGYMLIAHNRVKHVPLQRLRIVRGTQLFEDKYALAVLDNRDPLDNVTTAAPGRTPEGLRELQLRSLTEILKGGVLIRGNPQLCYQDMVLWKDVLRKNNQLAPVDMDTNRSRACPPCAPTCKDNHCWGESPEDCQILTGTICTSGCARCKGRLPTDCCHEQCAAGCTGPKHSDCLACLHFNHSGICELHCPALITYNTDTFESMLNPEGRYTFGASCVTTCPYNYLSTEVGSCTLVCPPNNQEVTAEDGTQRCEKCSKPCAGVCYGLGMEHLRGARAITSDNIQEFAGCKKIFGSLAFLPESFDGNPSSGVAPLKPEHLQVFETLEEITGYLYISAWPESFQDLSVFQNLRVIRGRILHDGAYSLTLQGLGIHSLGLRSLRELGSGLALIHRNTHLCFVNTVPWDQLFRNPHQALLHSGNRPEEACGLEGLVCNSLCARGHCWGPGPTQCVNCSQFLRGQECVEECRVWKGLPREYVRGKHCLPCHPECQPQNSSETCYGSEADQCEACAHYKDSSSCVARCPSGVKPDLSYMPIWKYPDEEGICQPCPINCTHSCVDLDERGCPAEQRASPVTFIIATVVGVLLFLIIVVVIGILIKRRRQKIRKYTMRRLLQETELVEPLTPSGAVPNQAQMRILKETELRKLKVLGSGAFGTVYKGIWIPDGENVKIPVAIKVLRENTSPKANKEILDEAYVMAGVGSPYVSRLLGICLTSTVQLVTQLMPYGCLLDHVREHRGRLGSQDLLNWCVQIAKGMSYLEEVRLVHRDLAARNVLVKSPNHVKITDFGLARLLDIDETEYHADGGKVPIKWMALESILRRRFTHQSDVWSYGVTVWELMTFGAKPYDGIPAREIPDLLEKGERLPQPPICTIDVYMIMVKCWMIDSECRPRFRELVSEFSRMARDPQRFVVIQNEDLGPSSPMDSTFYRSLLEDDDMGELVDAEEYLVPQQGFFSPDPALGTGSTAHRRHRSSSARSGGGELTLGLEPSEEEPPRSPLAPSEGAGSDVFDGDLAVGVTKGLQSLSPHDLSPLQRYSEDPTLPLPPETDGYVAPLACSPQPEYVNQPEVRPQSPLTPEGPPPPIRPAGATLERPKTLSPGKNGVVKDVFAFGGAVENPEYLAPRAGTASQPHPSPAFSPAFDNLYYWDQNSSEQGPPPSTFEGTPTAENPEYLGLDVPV

B1: 1091 Pro1039 (protein)
chain: QVQLQESGGGLVQPGGSLRLSCAASGFTFDDYAMSWVRQAPGKGLEWVSSINWSGTHTDYADSVKGRFTISRDNAKNTLYLQMNSLKSEDSAVYYCVKGWRLTGGYYDSVQGQGTQVTVSS
B2: 1092 Pro1040 (protein)
chain: B1 chain with P14A, G16A, M34L
B3: 1097 Pro1041 (protein)
chain: B1 chain with T28I, S35T, L102H, G104D, G105N, D108A, S109G
B4: mouse CA9 (enzyme)
chain: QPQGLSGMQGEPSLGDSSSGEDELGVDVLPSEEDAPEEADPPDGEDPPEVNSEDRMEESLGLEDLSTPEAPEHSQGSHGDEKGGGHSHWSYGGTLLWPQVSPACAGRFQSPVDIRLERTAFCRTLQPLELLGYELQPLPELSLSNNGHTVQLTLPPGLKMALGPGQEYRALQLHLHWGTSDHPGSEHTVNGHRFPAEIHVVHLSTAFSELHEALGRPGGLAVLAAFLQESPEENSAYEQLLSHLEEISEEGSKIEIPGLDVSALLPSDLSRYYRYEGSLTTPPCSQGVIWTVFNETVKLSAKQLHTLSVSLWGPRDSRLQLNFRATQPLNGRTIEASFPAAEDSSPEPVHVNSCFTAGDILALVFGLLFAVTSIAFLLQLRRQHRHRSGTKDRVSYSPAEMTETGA
B5: h1162 Pro1064 (antibody, V domains shown)
VH: QVQLLESGGGLVQPGGSLRLSCAASGRPFSGNAMGWFRQAPGKEREFVAAISWSGDSTYYADSVKGRFTISRDNSKNTLYLQMNSLRAEDTAVYYCAATRSFYSRTYYTRPSDYNYWGPGTLVTVSS
B6: 1162 Pro1047 (antibody, V domains shown)
VH: B5 VH with L5Q, P14A, S75D, K76E, L79A, R87K, A88P, L122Q
B7: h456 Pro509 (antibody, V domains shown)
VH: QVQLVESGGGLVQPGGSLRLSCAASGSALIINAMGWYRQAPGKQRELVATVTRSGRTNYADSVKGRFTISRDNSKNTLYLQMNSLRAEDTAVYYCNVALWIADGEYDYWGQGTLVTVSS
B8: 1160 Pro1046 (antibody, V domains shown)
VH: QVQLQESGGGLVQAGGSLRLSCAASGRTFSNERLGWFRQAPGKERELVAAIRWSGVIIGYADSVRGRFTISRDNAKSTVYLQMNSLRPEDTAVYFCAADRGVYGTWDYWGQGTQVTVSS
B9: 1159 Pro1045 (antibody, V domains shown)
VH: QVQLQESGGGLVQAGGSLRLSCATSGRTFSSLAMGWFRQAPGKERELVAGISWSGSTTYYADSVKGRFAISRDNAKNTVYLQMNSLKPEDTAVYYCAARTSSIATIGREYDYWGQGTQVTVSS
B10: h1159 Pro1062 (antibody, V domains shown)
VH: B9 VH with Q5L, A14P, A75S, V79L, K87R, P88A, Q118L
B11: 1121 Pro1042 (protein)
chain: QVQLQESGGGLVQAGGSLRLSCAASGFIFSDYAMTWVRQAPGKGLEWVSSINWSGTHTNYADSVKGRFTISRDNAKKTLYLQMNSLKSEDTAVYYCARGWMVVPDSTRGQGTQVTVSS
B12: 1139 Pro1043 (protein)
chain: QVQLQESGGGLVQPGGSLRLSCAASGFTFDDYAMSWIRQAPGKEMEWVSGINWSGTHTRYADSVKGRFTISRDNAKNTLDLQMNSLISEDTAVYYCARGFAADSRSTRGQGTQVTVSS
B13: h1139 Pro1060 (protein)
chain: B12 chain with Q5V, L11V, Q13R, T78S, D80Y, I87R, S88A, V93L, Q113L
B14: h1156 Pro1061 (antibody, V domains shown)
VH: QVQLLESGGGLVQPGGSLRLSCAASRNIGSNYAVGWFRQAPGKEREPVAALRWTGSIIGYDDSLRGRFTISKDNSKNTLYLQMNSLKPEDTAVYYCAARILDRSSYDYWGQGTLVTVSS
B15: 1156 Pro1044 (antibody, V domains shown)
VH: B14 VH with L5Q, P14A, R19K, L20V, N74D, S75A, L79V, A92G, L114Q
B16: 1055 Pro1036 (protein)
chain: QVQLQESGGGLVQPGGSLRLTCEVSGRAISSYAISWFRQAPGEEREFVAAINWSGTHTNYADSVKGRFTISRDNVKNTVYLQMNSLKPEDTATYFCSRGWSVFDPDYRGQGTQVTVSS
B17: 1059 Pro1038 (protein)
chain: B16 chain with E23A, V24A, N59D, V75A, T93V
B18: 1058 Pro1037 (protein)
chain: B16 chain with P14A, E23A, V24A, N59D, N77R

Tests used:
Human Her2 protein = Human Her2 protein (human, UniProt P04626 23-652)
murine HER2 = biological target: T1, murine HER2
mouse CA9 protein = mouse CA9 protein (mouse, UniProt Q8VHB5 32-437)
Sequence of mouse CA9 protein (Q8VHB5 32-437): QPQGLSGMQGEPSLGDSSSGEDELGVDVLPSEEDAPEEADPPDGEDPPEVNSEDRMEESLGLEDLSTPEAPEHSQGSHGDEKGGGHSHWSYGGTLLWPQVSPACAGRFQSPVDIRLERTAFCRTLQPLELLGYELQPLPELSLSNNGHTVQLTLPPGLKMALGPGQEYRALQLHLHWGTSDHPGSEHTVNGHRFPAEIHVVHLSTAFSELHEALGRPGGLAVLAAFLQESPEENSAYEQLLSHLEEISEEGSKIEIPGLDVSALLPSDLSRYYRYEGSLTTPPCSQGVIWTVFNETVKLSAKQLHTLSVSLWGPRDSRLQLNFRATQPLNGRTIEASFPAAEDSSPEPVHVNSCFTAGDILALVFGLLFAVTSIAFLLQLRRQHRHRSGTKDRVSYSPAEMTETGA

Sequence of 456 (Q8VHB5 32-437): as above

Binder	Kd (Human Her2 protein) [nM]	further results
B1	6	–
B2	3.1	–
B3	2.5	–
B4	–	Kd 456: 8.2 nM
B5	22.9	Kd (murine HER2): 122 nM
B6	21.4	Kd (murine HER2): 54 nM
B7	–	Kd (mouse CA9 protein): 1.4 nM
B8	56.7	–
B9	18	Kd (murine HER2): 80 nM
B10	106	Kd (murine HER2): 19100 nM
B11	3.8	–
B12	5.6	–
B13	7.3	–
B14	< 0.01	–
B15	6.6	–
B16	53.1	–
B17	23	–
B18	8.6	–

From patent US20230340159A1 (published 2023)
